Results: paper PMC2922993
One block for each substance: values may come before it.

Experiments:
[1] = target: JMJD2A double tudor domain (UniProt O75164); assay: ITC
[2] = target: inhibitor of growth 2 (ING2) PHD finger; assay: ITC
[3] = target: ING2 PHD finger (UniProt Q9H160); assay: ITC with soluble peptides; conditions: reference: H3K4me3 peptide; sites T3
[4] = target: RAG2 PHD finger, 414-487 (UniProt P21784); assay: ITC with soluble peptides; conditions: reference: unphosphorylated H3K4me3 peptide

JMJD2A double tudor domain, sequence (O75164 895-1011): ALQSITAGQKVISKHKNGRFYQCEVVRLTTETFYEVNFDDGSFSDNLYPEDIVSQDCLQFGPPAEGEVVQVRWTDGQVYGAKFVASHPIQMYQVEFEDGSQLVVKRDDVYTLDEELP

Kd [1]: 1800 nM
Kd [2]: 19.9 µM
Substance: H3K4me3T6ph peptide (ITC)

KD [3]: lost; reference 0.98
KD ([4]; sites T3): lost; reference 17.8
Substance: histone H3 (from UniProt P68431) H3K4me3 peptide with T3ph

KD ([4]; sites T6): lost; reference 17.8
Substance: histone H3 (from UniProt P68431) H3K4me3 peptide with T6ph
